The test system of the series is T1, QseB (rQseB) (Glaesserella parasuis serovar 5 strain CF7066), ORF:6fe33d28.
T1 sequence: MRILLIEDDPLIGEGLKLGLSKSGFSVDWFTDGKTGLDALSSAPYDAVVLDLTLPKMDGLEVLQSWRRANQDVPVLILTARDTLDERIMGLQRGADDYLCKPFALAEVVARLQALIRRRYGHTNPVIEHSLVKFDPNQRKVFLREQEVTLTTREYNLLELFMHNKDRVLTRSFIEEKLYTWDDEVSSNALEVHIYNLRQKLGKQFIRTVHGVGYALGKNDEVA
Kind of series: EMSA. Particulars: 50 mM Tris, 10 mM MgCl2, 0.1 mM DTT. Background: Mobility shift assays separate free from complexed probe on a gel.

In the case of “AAATTGCTCCTAGTGTTTATTAGTAAAAGCATTATTGCTTTGTTGAGTGTATTAAAACAGAGAAATCTTAAGAAAGTCTTAAGATAAAAAAATTTATTTTTAGACAAAATCTAATAAAAAAGCGGCAAGATTCGTAAATCCTACCGCTTAGATCACATTATGAAAAAATTAGAATCTATAGTTTGCCCCAATAA (double strand) [qseB promoter (Cy5.5-qseB)]”, the binding result is “binds”.
Regarding “GAAGAACTTACGCTGAGTTGTTTAAATAGCTCGTTGAGCAAGGTGAATCCTCAGAAGAGTATGTCGAAGTAATGGGGCATATGCAAGTAGAAATAGATTTAGAAATGATCAAAACCTGAATCTGAAATATTATTTTAAATATATAGTCTTAACTGTCTTAGGAAAAGGCAGTAGAGATAGGATGAGATAACAGT (double strand) [capD promoter (Cy5.5-capD)]”, the binding result is given as “binds”.
